# Source: a protein production outcome set (Wang et al. 2014)
# Test: label from the status in PepcDB records
row,Sequence,protein production
1,MAANRRNETASEAHGLDDILSAAAPRPRTALPNVATTVTTVAALYFGREVFLPIAIALLLTFALAPLVSALKRVGIPRIAAVIVSVLSAFAALALFSFVVATQVSELAQNIPVYQTNILAKIRSLKETGVGGGIIAKLSNVVERVGQEIDRQDATLPAATPDKQPREPVPVEIVARERPLEVLQNIVGPLISPLGSAGLIIVVVIFMLLEREDLRDRFIRLVGYGDLHRTTEALQDAAKRVGRYLLMQLVVNIVYAIPIAIGLWILGIPNALLWGLLALALRFVPYIGPAIGMLLPLFLALAVAPGWSLVLWTAALFVVMELVTGNVVEPWLYGSRTGLSPLAIIVAAIFWTWLWGPLGLVLSTPLTVCLVVLGRHVPQFEFLDVLFGNEPVLEPHARLYQRLLAGDPDEATDHAEEMLEEKYLVEFYDKVAIPALLLGERDRARGVMGDQQRRQVAASALALVANLEDDAKEEADGDDAPHVAEAEGEPGDAVEEEATELPDGTGLSVLCAGGRGDLDDAAAAMLAQVLEVQGATASKAGFAEMEPASIRRLELETIDTVVVGFLNRDSVKHARFLVRRLKRAKAALRVGIVFWSETGNGDKEAAAKLAQDINADFVAHGMVDAVTDALSHEPPVALKLVAKRRMRRPRAAPRKVPAAAAG,failed
2,MAAPELLIPWADFLLCVALIAVAGNRLSRYGDVIAEKTGLSGSWIGLILLATATSLPELITGAAAVTAAGAPDIAAGDVLGSCVFNLVILVALDFLHRHESVYRRASQGHLLSAGFGIILLGLVGVNLLLADKHIVPTLGWVGLYSPLLGLLYLFSMRAVFLYEREQMAAFTEDMTEQYPGIRLRRAVMWYVAVAAVVVGAGVWLPSIGTTLAEVMGWNKSFVGTLFVAAATSMPELSVTIGAVRIRAVDMAIANLLGSNLFDLCILAIDDLAYLPGPLLSHVSSVHALSAFSAMVMTGIFIVGLLYRAGTRLFKTVGWVSIALLLVYLGNAYVLYLYDK,failed
3,MAAPGGRGRSLSGLLPAQTSLEYALLDAVTQQEKDSLVYQYLQKVDGWEQDLSVPEFPEGLEWLNTEEPISVYKDLCGKIVVLDFFTYCCINCIHLLPDLHALEHTYSDKDGLLIIGVHSAKFPNEKVLDNIKSAVLRYNITHPMVNDADASLWQELEVSCWPTLVILGPRGNMLFSLIGEGHKDKLFLYTSIALKYYKDRGQIRDNKIGIKLYKDSLPPSPLLFPGKVTVDQVTDRLVIADTGHHRILVVWKNGQIQYSIGGPNPGRKDGIFSESTFNSPQGVAIMNNIIYVADTENHLIRKIDLEAEKVSTVAGIGIQGTDKEGGAKGEQQPISSPWDVVFGTSGSEVQRGDILWIAMAGTHQIWALLLDSGKLPKKNELTKGTCLRFAGSGNEENRNNAYPHKAGFAQPSGLSLASEDPWSCLFVADSESSTVRTVSLKDGAVKHLVGGERDPMNLFAFGDVDGVGINAKLQHPLGVTWDKKRNLLYVADSYNHKIKVVDPKTKNCTTLAGTGDTNNVTSSSFTESTFNEPGGLCIGENGELLYVADTNNHQIKVMDLETKMVSVLPIFRSENAVVDGPFLVEKQKTLPKLPKSAPSIRLSPVTACAGQTLQFKLRLDLPSGSKLTEGVSSCWFLTAEGNEWLLQGQIAAGDIENISSQPTISLQIPDDCLSLEAIVSVSVFLYYCSADSSACMMKAILFSQPLQITDTQQGCIAPVELRYVF,failed
4,MAAPRPGPLRPARGFAPMNNVNGILLVVAAMAAFSIEDMFIKKLSVTVPIGQILLVLGVFCSAAFLTMAVATRKRVFSRAAWSPLLLIRAATEAVSALTFATALSLVDLSTVAAVFQAMPLVVTMGAALFLGEQVGWRRWSAITVGFVGVLMIIRPGMAGFQPAQLLVVASVISVAARDLITRRIDAHVASAVVSFQAYLALILGGAGILLVSGTALVPVEPGHWGPYAGAILFGVLGYYGIVTAMRVGEASVVTPFRYTRLLFSLLAGVLVFGERPDWPTLAGGALIIGSGLYTFLRERRLARELAAVPA,failed
5,MAAPRVIMAAPRVIMAAITGVTPEVVNRTRPERRDLADMRAAMKTGFTAVASVIGVGVAGLAYGVIEAHRFVVRHVEVPVLKPGSSPLRILHMSDLHLLARQETKRRFIRQLDALNPDLVINTGDNFCSADSLQPLLDDMSGLLQRPGTFVFGSNDYLVPKFKNPFSYLLWGRSQQATEPVPELPHEELRQAFTSAGWLDLNDKSETLEVAGHRLTLRGTDDAHHDRDHYEEVAGPPDGEADLNIGVTHAPYLKILDAMVSDGMDIVFAGHTHGGQVCLPFTGAIITNCDLDTERAKGLSQHGRGGHTGWLHVSAGLGCSPFAPYRTFCRPEATLLTLVPRP,failed
6,MAAPSVPTPLYGHVGRGAFSDVYEPAEDTFLLLDALEAAAAELAGVELCLEVGAGSGVVSAFLASMIGPQALYMCTDINPKAAACTLETARCNRVHLQPVITDLVQGLLPRLKGKVDLLVFNPPYVVTPPEEVGSHGIEAAWAGGRNGREVMDRFFPLASQLLSPRGLFYLVTIKENNPVLPRSYGNAANVPELGSGQLGENLLAFKSNIGGLSKGKLYH,failed
7,MAAPVVVAPAINLQHMDLPEGNEDVAAVLQTSTQRWLNAAEWSILYNNHNLFPESNSFTIPIEVEGLYRVDNRFNQDSNTWRNTSAPSTCKNAINFYNVRIATGLYRFDDDGDIVMDAEVQGGWVLCRKTVRNRGHCGTRLSHLYKPVFDRQFKMLKIHMMEDMIKDGEEKSLDTFVISRQLTTFTDLTGWAFGSSVIVEFKVRLEHLRGKSIPIA,failed
8,MAARAWVVAVVGFFVMWLMFQVVGWVIGVIWGVWQQLDQATAGTMIEPPQDWKNMLNSLYSNMLGIWNYLPVVVLLSAVVYIIIESLRRRPEEYYV,failed
9,MAARDPEATKARIFEAAVAEFARHGIAGARIDRIAAEARANKQLIYAYYGNKGELFASVLEKKMLDLAISVPVDPDDIEGWIDRLLDYHAAHPELLRLLFWEGMEYGTAELPHEAERQEHYARKVAAVRDGQERGVITDAIPAPDLLFLLVAMANWAVVVPQMKRILVGGGDAGTDGLRDSIKKAARRIVDR,not failed
10,MAARRAPISRRDRPAKPALSRRWIVDTAVALMRAEGLEKVTMRRLAQELDTGPASLYVYVANTAELHAAVLDALLGEVDLTGAGAEEDWREQLRAVLTSYTLVLFAHPQLARSALVARPSGENYLRLVERVLELLARSGAPGAQVAWGVDKLLQDATATAAEQATQEHDPASHEDWSATVRALRDADEATHPAIASHMPLLVAGSAHDRLRWSFDVLVNGITRTPVPGPARGAAG,not failed
11,MAASAHGSVWGPLRLGIPGLCCRRPPLGLYARMRRLPGPEVSGRSVAAASGPGAWGTDHYCLELLRKRDYEGYLCSLLLPAESRSSVFALRAFNVELARVKDSVSEKTIGLMRMQFWKKTVEDIYCDNPPHQPVAIELWKAVKRHNLTKRWLMKIVDEREKNLDDKAYRNIKELENYAENTQSSLLYLTLEILGIKDLHADHAASHIGKAQGIVTCLRATPYHGSRRKVFLPMDICMLHGVSQEDFLRRNQDKNVRDVIYDIASQAHLHLKHARSFHKTVPVKAFPAFLQTVSLEDFLKKIQRVDFDIFHPSLQQKNTLLPLYLYIQSWRKTY,failed
12,MAATRLKRRKFPTINEEFYYNQLENGMTVFLIPKESFKETLAVMSSRFGSIDTNFTVNGKKKSYLAGIAHLLEHQLFEMNKQKDAAYEFTKLGAESNAYTTFDKTIYYFSTADNIKKNLDLLQEFTSQINFTDMSIEKEKKIITQEFNMYQDDSDDYLYQVILSKLYPQTSLAEDITGNRDSIDKLTKNNLEENFHYFYQPENLTLLVAGDFDVKRVYKDIVTTQRQLPDRP,failed
13,MAAVPPENGVDGDDEREEEEEDEEEEEEEEEEENGDEAEEEPRLKYQRMGGNVPALLSNDAASCIAVAARMIALGTHDGTVRILDLLGNQVKEFRAHTAPVNDINFDTEGEYIGSCSDDGSVVINSLFTDDEKMKFDYHRPMKAISLDPDYTKKQSKRFVAGGLAGHLYMNSKKWFGNKDQVLHSGEGPIHSVKWRGSLIAWANDVGVKVYDTAKDQRVTFIEKPRGSPRPEALLPHLVWQDDTLLVIGWGTSVKIASIKSDQQQTGTFRQIQMSSLTQVDIVASFQTSYYISGIAPFGDSLVILAYIPIEGDGEKEFSSTTTLSRQGNAQRPEIRIVSWNNDELTMDALPVHGFEHYKAKDYSLAHAPFPGSSYAGGQWAAGDEPLYYIVSPKDVVIAKPRDAEDHINWLLQHGFHEKALAAVEASEGRTELIDKVGAGYLDHLIVERKYAEAASLCPKLLRGSASAWERWVFHFAQLRQLPVLVPYMPTDNPRLKDTVYEVALVALATNPSYHKELLSAVKSWPRSVYSALTVISAIEPQLNTSSMTDALKEALAELYVIDGQYQKAFSLYADLLKPEVFDFIEKYSLHEAIRGKVVQLMLLDCKRATVLFIQNRDLIPPSEVVPQLLKAGKNPQVLKAGKKCDSRYYLYLYLHALFEVSHDTGKDFHDMQVELYAEYDTKMLLPFLRSSQHYKLEKAYELCVKKDFLREQVFVLGRMGNAKQALAVIINKLGDIEEAVEFVSMQHDDDLWEELIKQCLNKPEMVGLLLEHTVGNLDPLYIVNMVPNGLEIPRLRDRLVKIVTDYRTETSLRHGCNDILKTDIVNLLVKCFNEARRGVCLSHEDDDSRAKREDNNRSSFSQRMVVDKSLSIKMTEVKSKTRGDTRCCMCFDPVSIRGDTVVVFFCCHAYHETCLMDAAFSNNNHKTTKGSSGYEYSYDNGVDEEEEDEEEDEDGDGDRPGRSRLRCILCTTAAAASAR,failed
14,MAAVVAATALKSRGARNARVLRGILAGATANKVSHNRTRALQSHSSSEGKEEPEPLSPELEYIPRKRGKNPMKAVGLAWYSLYTRTWLGYLFYRQQLRRARNRYPKGHSKTQPRLFNGVKVLPIPVLSDNYSYLIIDTQAQLAVAVDPSDPRAVQASIEKEGVTLVAILCTHKHWDHSGGNRDLSRRHRDCRVYGSPQDGIPYLTHPLCHQDVVSVGRLQIRALATPGHTQGHLVYLLDGEPYKGPSCLFSGDLLFLSGCGRTFEGNAETMLSSLDTVLGLGDDTLLWPGHEYAEENLGFAGVVEPENLARERKMQWVQRQRLERKGTCPSTLGEERSYNPFLRTHCLALQEALGPGPGPTGDDDYSRAQLLEELRRLKDMHKSK,failed
15,MACFSGTVYLVACRFRSRGNSMPYKISQYVLDDATPDDSGIVQGDMDVFIHQLMTLMEASQQGYALFDGNDELRFANSAFRAALGIGRHEFPSWVDMMRSGYRTTTGTSIETSDFELWLRSAKTRRGKLPFRTIETSLKDGRWMLTTETTLPGGWMLCVITDVSELGIELRDLRQERDRALKSALSDELTGLGNRRYAMDTLNHLLGPNKAQALAVIIMDIDHFKSVNDRFGHAYGDLVLKDFAARLSATAGRDDLLGRIGGEEFLLVLSGSRMHSADSLMRQLLSSLAQASPLGDRPDFRYSCSAGIAYANPGESASEVLRHADTALYEAKNTGRNRYVIYATVP,failed
16,MACGATLKRPMEFEAALLSPGSPKRRRCAPLPGPTPGLRPPDAEPPPLQMQTPPASLQQPAPPGSERRLPTPEQIFQNIKQEYNRYQRWRHLEVVLSQSEACTSETQPSSSALTAPGSPGAFWMKKDQPTFTLRQVGIICERLLKDYEDKVREEYEQILSTKLAEQYESFVKFTHDQIMRRYGTRPTSYVS,failed
17,MACGEFSLIARYFDRVRSSRLDVELGIGDDCALLNIPEKQTLAISTDTLVAGNHFLPDIDPADLAYKALAVNLSDLAAMGADPAWLTLALTLPDVDEAWLESFSDSLFDLLNYYDMQLIGGDTTRGPLSMTLGIHGFVPMGRALTRSGAKPGDWIYVTGTPGDSAAGLAILQNRLQVADAKDADYLIKRHLRPSPRILQGQALRDLANSAIDLSDGLISDLGHIVKASDCGARIDLALLPFSDALSRHVVPEQALRWALSGGEDYELCFTVPELNRGALDVALGHLGVPFTCIGQMTADIEGLCFIRDGEPVTLDWKGYDHFATP,not failed
18,MACGKGHDIMEVASPYGWKKNPQKVLDFYNQRRRQLFEVYPNKAHKALAELEKHYQVNIITQNVDDLHERAGSSRILHLHGELLSVRSEKDPNLVYRWEKDLNLGDLAKDKSQLRPDIVWFGEAVPLLKEAISLVKQAHLLIIIGTSLQVYPAASLYTHAHKDALIYYIDPKAKNAHLPQNVQCINESAVHAMQDLMPKLIEMAS,failed
